Consider 20 sequences from the DeepSol protein solubility set.

The nature of this series: soluble on expression in E. coli; label from the status in PepcDB or PDB records.
Take “MEALKIALLGGGTVGSAFYNLVLERAEELSAFGVVPRFLGVLVRDPRKPRAIPQELLRAEPFDLLEADLVVEAMGGVEAPLRLVLPALEAGIPLITANKALLAEAWESLRPFAEEGLIYHEASVMAGTPALSFLETLRGSELLELHGILNGTTLYILQEMEKGRTYAEALLEAQRLGYAEADPTLDVEGIDAAHKLTLLARLLVDPGFPFAEVEAQGIARLTPEVLQKAEARGERVRLVASLFGEGGRWRAAVAPRRLPQDHPLARARGNALWVRARPLGEAFVTGPGAGGGATASGLFADLLRFLSGAPGHLPAPRARPPLEEGSPWPGVE”: the “soluble on expression in E. coli” value is given as “soluble”.
On to “MEASDLTFTVSVDQTTKHVFDAICNVRGWWSEEIEGNTDKRNETFIYQYEDVHYAKIKVQELIPNEKVVWLVTYNYFKFTKDKSEWTGTTIRFDISAKGDKTEIRFTHYGLNPEFECYDICSNAWGQYIGQSLPDLIKSGKGNPNGKNKPTTADEERFSAKNLEHHHHHH”, for which the “soluble on expression in E. coli” value is recorded as “soluble”.
Take “MEASMERFDNAPETALAWHRQGLGAALATVVETWGSAPRRVGAQLVIGGDGRIEGSVSGGCVEGAVIVEALEALEEGQARLLEFGVSDEDAFAVGLACGGTIRVLVEPVGQVLSEVMLAELVAARASRQALAYVVDTARGTRALVRDAYPERMRMDRSGFDEDGRTFVAVHNPPLRLIVVGAVHIAQALVPMARIAGYDPVVIDPREAFASDARFPGETILHDWPDEAVAKLGLDARTALVLLTHDPKLDDPALEAALAADVFYIGALGSTRTHAKRVARMQEAGFTEAQIGRIHGPVGLDIGAAGPAEIAVAILAQMTAVLRGRA”: the “soluble on expression in E. coli” value was “soluble”.
Consider “MEAVERAFRALDEGIADYLARKGIRPSCGPGCFACCYGWVTASRLEAQALLPHLTEAQKARVLEEGPRRLALLAREKDDPGFPRRFFLSRSPCPLLEAGLCGVYAHRPLACRGVLTDEDPAYCDPENPHPAPKPHHGPGHFLRVPHRMARRRMEELWEEERAQTGFLVLGELSGLLYLLLTGLPEDREGVEARLEALGVLGGRFGFQVVAAALEHHHHHH”, for which the “soluble on expression in E. coli” value is recorded as “not soluble”.
Consider “MECFRSRIITIYLKRLKYSPLLWRNAKRGTRSSYMWLYVSICCGDFQFWKLSGTPSSPTCKTHSCGFIFWTNTHLLGDQLRYTIMDTIGMYLIIKQRLRNIHKNDPRLFQYVFENGHPLPYNR”, for which the “soluble on expression in E. coli” value was “not soluble”.
On to “MEDDDSPSSRDLDAQNPYDRLLALDTSTVDPNCNLDSVSAIYLAMKSSKLECVDERGQDSLITSVCMEDEEDEELDEFDPYLFIKNLPNLSSVVPTFRPVLLPKQTRSCPPISLVLDLDETLVHSTLEPCGEVDFTFPVNFNEEEHMVYVRCRPHLKEFMERVSRLFEIIIFTASQSIYAEQLLNVLDPKRKLFRHRVYRDSCVFFDGNYLKDLSVLGRDLSRVIIVDNSPQAFGFQVENGVPIESWFNDPSDKELLHLLPFLESLIGVEDVRPMIAKKFNLREKIDAAVAAPEYPAEAGDPFER”, for which the “soluble on expression in E. coli” value is recorded as “soluble”.
As for “MEDVVLPLKKVLRVATEADYKCVAENGDSCQKAFLLCDEKIRERELDMSLVDVDYTFDRNKIIFYFTAEGRVDFRELVKDLASVFRTRIELRQIGVRDEAKLEHHHHHH”, the entry is “not soluble”; as for “MEEEHEEESHLSQSDTVGSAIVEDGPGKEYEIYIKNEELVDKLKLLNYEDGFLKLGVVYKPILKHYFVKSKNVGEQFFLFTSLAAWLIKKSGDESYNMPQEFDDPNSTLANIMAAAKNKGIATDFTAAKLKSGAGENVIFILNSLADASLVHVGFQWQKMIPPKEEDEDTAVDEQDEDDDNDDIVEEPMNFLDDDDDDNVIEIDLKAQGLATESKNPLQSVLQSNTDAITWKQEVERVAPQLKITLKQDAKDWRLHLEQMNSMHKNVEQKVGNVGPYLDNMSKDIAKALERIASREKSLNSQLASMMSKFRRATDTRAELREKYKAASVGVSSRTETLDRISDDIEQLKQQIEEQGAKSSDGAPLVKIKQAVSKLEEELQTMNVQIGVFEQSILNTYLRDHFNFSANLLNIM”, “soluble”; as for “MEEIKPASASCVSKEKPSKVSDLISRFEGGSSLSNYSDLKKESAVNLNAPRTPGRHGLTTTPQQKLLSQHLPQRQGNDADKTQGAQTCVANGVMAAQNQMECEEEKAATLSSDTSIQASEPLLDTHIVNGERDETATAPASPTTDSCDGNASDSSYRTPGIGPVLPLEERGAETETKVQERENGESPLELEQLDQHHEMKETNEQKLHKIANELLLTERAYVNRLDLLDQVFYCKLLEEANRGSFPAEMVNKIFSNISSINAFHSKFLLPELEKRMQEWETTPRIGDILQKLAPFLKMYGEYVKGFDNAMELVKNMTERIPQFKSVVEEIQKQKICGSLTLQHHMLEPVQRIPRYEMLLKDYLRKLPPDSLDWNDAKKSLEIISTAASHSNSAIRKMENLKKLLEIYEMLGEEEDIVNPSNELIKEGQILKLAARNTSAQERYLFLFNNMLLYCVPKFSLVGSKFTVRTRVGIDGMKIVETQNEEYPHTFQVSGKERTLELQASSAQDKEEWIKALQETIDAFHQRHETFRNAIAKDNDIHSEVSTAELGKRAPRWIRDNEVTMCMKCKEPFNALTRRRHHCRACGYVVCWKCSDYKAQLEYDGGKLSKVCKDCYQIISGFTDSEEKKRKGILEIESAEVSGNSVVCSFLQYMEKSKPWQKAWCVIPKQDPLVLYMYGAPQDVRAQATIPLLGYVVDEMPRSADLPHSFKLTQSKSVHSFAADSEELKQKWLKVILLAVTGETPGGPNEHPATLDDHPEPKKKSEC”, “soluble”.
“MEEMGSRSDTIMVASLNRETKEIKLVSVYRDTLLQLSDGTYNKANAAYAYGGEEEAVAMLNKNLDLNIEHYVSVDFSVLVHVIDALGGIDINVEEAENGMDIIPYLNNYVVEVIKNTGVDSAPFTQLGQQHLNGVQATAYARLRYGGGDDYKRTERQRQVLEQIAIKAQKAKLSTINKIIDKVFDNVKTNFTLTETIAYAKDVKSYIFGETQGFPYESTTADLDVGNSVVATDLASDVTKLHQFLFGENDYTPSSTVQSISEDISNSTYDTGESYDTEYDEYGYSQDYSGYDSGYTDNSYGTGGYQDSGYGDGSSGNGYTEDTGGDYVPPSDGGGTDSGSSDSNSQIPDTGTGDSGDTGGESLELEHHHHHH”: the “soluble on expression in E. coli” value was “soluble”.
For the sequence “MEENLERTESLAREADDCHPIFRIAPSTVEFNKLRKRLLRHIRQAFDDFSMLSSGKKWLVALSGGKDSYGLLALLLDLKWRGLLPVEILACNLDQGQPGFPKHILPDFLNSYQIPHRIEYQDTYSIVTDKLVHTQTYCSLCSRLRRGNLYRIAREEGCSALVLGHHRDDVLETFFMNLFHGGRLAAMPGKLINDEGDLFVLRPLVYAAEEDMEKFSQAMQFPIIPCNLCGSQDGLQRNAMKEMLKDIERKMPGRKDTMIRALTNVRPSHLLDKKFFDFKNLF”, the “soluble on expression in E. coli” value is “not soluble”.
As to “MEEPKLILTVKNNKNNKCIIEILNRLYLKDLNSKAEEIIKNVILVYTSLTPIMAYGLLISAPPSCLAKIYPVDLVIHSVKEREIIDKITEFLKKNIQFKTFYVDCYDRGIKINCREVEIGIGIGLRGFASVDYKNPEKVIVVNVIKDSTYMSVIKKGQEKVSVISLR”, the “soluble on expression in E. coli” value was “soluble”.
Regarding “MEERELVEYFRGQIREDPDVASAVAAIRSLLEFLKRDQSETILGLRENMTQAIHRLQEADPSVAVSSGGELFLRFISLTSLEHPDLSQCKNVMIERGELFLKKISLSRGKVGKLCHTFIKDGAKILTHSSSRVVLKVLENAAADNKRFTVKLMAEKLRKLSIPVTVVLDAAVGYILEKVDLVIVGAEGVVESGGVINKIGTYQMAVCSKAHNKPFYVVAESFKFVRLYPLNQQDVPDRFKYKADVLKTAEDLNQEHPLIDYTPSSLITLLFTDLGVLTPSAVSDELIKLYL”, the “soluble on expression in E. coli” value is given as “soluble”.
In the case of “MEERLNRVKQQLQQSSYKLTPQREATVRVLIENEKDHLSAEDVYLKVKDKAPEIGLATVYRTLELLAELKVVDKINFGDGVARFDLRKEGAKHFHHHLVCMECGRVDEIDEDLLPEVENRVENEFNFKILDHRLTFHGVCETCQAKGKG”, the “soluble on expression in E. coli” value was “not soluble”.
Consider “MEERMEMISERPKESMYSWNKTAEKSDFEAVEALMSMSCSWKSDFKKYVENRPVTPVSDLSEEENLLPGTPDFHTIPAFCLTPPYSPSDFEPSQVSNLMAPAPSTVHFKSLSDTAKPHIAAPFKEEEKSPVSAPKLPKAQATSVIRHTADAQLCNHQTCPMKAASILNYQNNSFRRRTHLNVEAARKNIPCAAVSPNRSKCERNTVADVDEKASAALYDFSVPSSETVICRSQPAPVSPQQKSVLVSPPAVSAGGVPPMPVICQMVPLPANNPVVTTVVPSTPPSQPPAVCPPVVFMGTQVPKGAVMFVVPQPVVQSSKPPVVSPNGTRLSPIAPAPGFSPSAAKVTPQIDSSRIRSHICSHPGCGKTYFKSSHLKAHTRTHTGEKPFSCSWKGCERRFARSDELSRHRRTHTGEKKFACPMCDRRFMRSDHLTKHARRHLSAKKLPNWQMEVSKLNDIALPPTPAPTQ”, for which the “soluble on expression in E. coli” value is listed as “soluble”.
Regarding “MEERNHENTLEKDLEAVGQEAQALEERLKAAEEELKGLKDKYLRLLADFDNYRKRMEEELKAREREGVLKALRALLPVLDDLDRALEFAEASPESIRQGVRAIRDGFFRILAGLGVEEVPGEGEAFDPRYHEAVGLLPGEPGKVAKVFQRGFRMGEALVRPARVAVGEEKREEADLE”, the “soluble on expression in E. coli” value is listed as “soluble”.
As to “MEEVFTAALESKIFRKRWVLLPDYVPDVLPHREAELRRLAEVLAPALRGEKPSNALLYGLTGTGKTAVARLVLRRLEARASSLGVLVKPIYVNARHRETPYRVASAIAEAVGVRVPFTGLSVGEVYERLVKRLSRLRGIYIIVLDEIDFLPKRPGGQDLLYRITRINQELGDRVWVSLVGITNSLGFVENLEPRVKSSLGEVELVFPPYTAPQLRDILETRAEEAFNPGVLDPDVVPLCAALAAREHGDARRALDLLRVAGEIAERRREERVRREHVYSARAEIERDRVSEVVRTLPLHAKLVLLSIMMLEDGGRPASTGEIYERYKELTSTLGLEHVTLRRVSGIISELDMLGIVKSRVVSRGRYGKTREVSLDADRLAVENALSEDPFVARLL”, the “soluble on expression in E. coli” value is “not soluble”.
As for “MEEVYASELRGREPETVDTLFLDNTQGGVIGGINEKLTKLELLSMVKCGLTTLKGMPVLPALNYLDLSDNELGDDASFDVLIKCAPEIKKITLSGNRLTLDNVRTLKMLPNLMELDLSNNSSLGLLDDYRVKMFEMIPSLKILDGCDVDGEEVEEEFAAGEGAEDSDEGDSDEDGPGLSYLNKSQFSDDETDDYVVPEAGDAETRGAKRAASADCDEPEAKKSAE”, the “soluble on expression in E. coli” value is “soluble”.
For “MEFVVEEGKLVNEDCSTLVLPALSIGNVGQLAVDLLVSSTGAERVGYLDDPNLLPCVGNDAYGPLPCGEIALPLEVYESSSIATTLAQQRSPVAKGMMIKFAENIANFAASSGKKHIIVLSSLDFQRLHNLDMSRGPQVYYLSNAESDGRDDHCERLGFGRLHEYDSEGRCWKYLSSVFEKNSVEELALPSEDELEDIDYYPSLPFAALFSAFKARGLKMTCLLCYCSEGDNIPEAFLLAEASSKLMGLTPDKFHGEEGGKWQIPYSWKSMYGAPPDMSMF”, the “soluble on expression in E. coli” value is recorded as “soluble”.
With “MEGEYRLTRSYAVVDITAQVDDSAILEPFACVMARARIGPRTRVGAHSVVGVGVSVGADCCIYHHVTLLNCDIGDRCVIHSGVAIGQDGFGFEVDQQTGKVRKKPQELSVRIGNEVEIGANTCIDRGSWRDTLIEDAVKIDNLVQIGHNVQVGANTFICGQAGVAGSTKIGRYCRFGGRSGAVDHLEIGDHVDVAANSVLTRNAPGHAVYAGFPAMPMREWRHQQVTLRRLSRAGKRQVDVSADDPEFPK”, the “soluble on expression in E. coli” value is “not soluble”.
